Experimental data taken from patent US20020197647A1 (ROCKEFELLER UNIVERSITY, published 2002).

Target: T1, c-Jun residues 1-104 (Rattus norvegicus (Rat), UniProt P17325 1-101, labeled with 35S by in vitro translation)
T1 construct: In vitro translated fragment; also called N-terminal region of c-Jun
T1 sequence: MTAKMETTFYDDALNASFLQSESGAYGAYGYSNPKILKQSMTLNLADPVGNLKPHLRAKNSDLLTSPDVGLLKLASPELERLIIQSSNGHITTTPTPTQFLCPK
Experiment: GST pull-down of 35S-labeled in vitro translated c-Jun fragment

B1: GST-Stat3 (1-154) (other)
chain: MAQWNQLQQLDTRYLKQLHQLYSDTFPMELRQFLAPWIESQDWAYAASKESHATLVFHNLLGEIDQQYSRFLQESNVLYQHNLRRIKQFLQSRYLEKPMEIARIVARCLWEESRLLQTAATAAQQGGQANHPTAAVVTEKQQMLEQHLQDVRKR
notes: GST is placed N-terminal because of the pGEX vector; not shown: Glutathione S-transferase (GST) fusion partner of vector pGEX-5X-1 (Pharmacia)
binding result: no binding
